Reference: patent publication US10689421B2, “Bacteriocin-producing Paenibacillus ehimensis and application thereof” (National Pingtung University of Science and Technology, priority 2018, dated 2020)

Columns and labels:
E. coli = assay: Antibacterial protein stability under different preservation temperature for 70 days; type: physicochemical
Protocol: Place purified antibacterial protein Peocin sample in 40° C., room temperature, 4° C. and −20° C. environment respectively for 70 days. Each week during the experiment, extract samples and measure their antibacterial activity and inhibitory zone diameter using TSB agar plate containing E. coli.

Vibrio alginolyticus = assay: Inhibitory zone of Peocin on solid medium containing pathogen; type: cell-based; conditions: solid medium containing strain 10^6 CFU/ml
Description: (§1) Following pathogens were subjected in the test. Six aquaculture pathogen: Aeromonas hydrophila, Vibrio vulnificus, Vibrio alginolyticus, Vibrio parahaemolyticus, Streptococcus agalactiae and Debaryomyces hansenii. Five foodborne pathogen which cause food rot and food poisoning: Staphylococcus aureus, Methicillin-resistant Staphylococcus aureus (MRSA), Escherichia coli, Salmonella typhimurium and Listeria monocytogenes. Two clinical infectious pathogens: Pseudomonas aeruginosa and Burkholderia gladioli causing leaf spot disease. Culture these strains separately and create solid medium containing these strains (10^6 CFU/ml). Add antibacterial protein after solid medium solidifies, then measure the antibacterial activity and inhibitory zone diameter.

Salmonella typhimurium = assay: as above; type: cell-based; conditions: solid medium containing strain 10^6 CFU/ml
Description: as §1

Debaryomyces hansenii = assay: as above; type: cell-based; conditions: solid medium containing strain 10^6 CFU/ml
Description: as §1

Burkholderia gladioli = assay: as above; type: cell-based; conditions: solid medium containing strain 10^6 CFU/ml
Description: as §1

Pseudomonas aeruginosa = assay: as above; type: cell-based; conditions: solid medium containing strain 10^6 CFU/ml
Description: as §1

Escherichia coli = assay: as above; type: cell-based; conditions: solid medium containing strain 10^6 CFU/ml
Description: as §1

Listeria monocytogenes = assay: as above; type: cell-based; conditions: solid medium containing strain 10^6 CFU/ml
Description: as §1

Staphylococcus aureus = assay: as above; type: cell-based; conditions: solid medium containing strain 10^6 CFU/ml
Description: as §1

Vibrio vulnificus = assay: as above; type: cell-based; conditions: solid medium containing strain 10^6 CFU/ml
Description: as §1

Streptococcus agalactiae = assay: as above; type: cell-based; conditions: solid medium containing strain 10^6 CFU/ml
Description: as §1

Aeromonas hydrophila = assay: as above; type: cell-based; conditions: solid medium containing strain 10^6 CFU/ml
Description: as §1

Vibrio parahaemolyticus = assay: as above; type: cell-based; conditions: solid medium containing strain 10^6 CFU/ml
Description: as §1

[1] = test system: Methicillin-resistant Staphylococcus aureus (MRSA); assay: as above; type: cell-based; conditions: solid medium containing strain 10^6 CFU/ml
Description: as §1

B1: Peocin: bacteriocin; DNA starvation/stationary phase protection protein produced by Paenibacillus ehimensis NPUST-1, amino acid SEQ ID NO: 1 (protein, listed as Paenibacillus ehimensis)
chain: MNEQLTVLLNNQIANWSVLYVKLHNYHWYVKGPQFFTLHTKFEELYTEAALHVDALAERLLALGGKPVATMSGSLRLASVREAEGEESAERMVAALVNDFTLIIGELKSGMKYAESVQDETTGDLLLAIHSSLEKHVWMLNAFLGN
antibacterial activity remained after preservation (E. coli; 4° C.): 90% | antibacterial activity remained after preservation (E. coli; 40° C.): 66% | antibacterial activity remained after preservation (E. coli; room temperature): 80% | antibacterial activity remained after preservation (E. coli; −20° C.): 90% | Diameter of inhibitory zone (Vibrio alginolyticus): 1.1 ± 0.03 cm | Diameter of inhibitory zone (Salmonella typhimurium): 1.1 ± 0.05 cm | Diameter of inhibitory zone (Debaryomyces hansenii): 1.3 ± 0.00 cm | Diameter of inhibitory zone (Burkholderia gladioli): 1.5 ± 0.05 cm | Diameter of inhibitory zone (Pseudomonas aeruginosa): 1.2 ± 0.00 cm | Diameter of inhibitory zone (Escherichia coli): 1.4 ± 0.00 cm | Diameter of inhibitory zone (Listeria monocytogenes): 1.0 ± 0.05 cm | Diameter of inhibitory zone (Staphylococcus aureus): 1.1 ± 0.05 cm | Diameter of inhibitory zone (Vibrio vulnificus): 1.3 ± 0.00 cm | Diameter of inhibitory zone (Streptococcus agalactiae): 1.4 ± 0.00 cm | Diameter of inhibitory zone (Aeromonas hydrophila): 1.3 ± 0.00 cm | Diameter of inhibitory zone (Vibrio parahaemolyticus): 1.2 ± 0.03 cm | Diameter of inhibitory zone [1]: 1.1 ± 0.05 cm
